{"source": "paper PMC11303406", "key": {"[1]": {"tested_on": "SlSWIBb-R6A (Solanum lycopersicum)", "test": "MST", "settings": "MST: 50 mM Tris-HCl pH 8.0, 150 mM NaCl, 0.05% Tween-20, 25 C"}, "[2]": {"tested_on": "SlSWIBb-K86A (Solanum lycopersicum)", "test": "MST", "settings": "MST: 50 mM Tris-HCl pH 8.0, 150 mM NaCl, 0.05% Tween-20, 25 C"}, "[3]": {"tested_on": "SlSWIBb-L44A (Solanum lycopersicum)", "test": "MST", "settings": "MST: 50 mM Tris-HCl pH 8.0, 150 mM NaCl, 0.05% Tween-20, 25 C"}, "[4]": {"tested_on": "SlSWIBb (Solanum lycopersicum)", "test": "MST", "settings": "MST: 50 mM Tris-HCl pH 8.0, 150 mM NaCl, 0.05% Tween-20, 25 C"}, "SlSWIBa": {"target": "SlSWIBa (Solanum lycopersicum, UniProt A0A3Q7HR54 1-124)", "test": "EMSA"}, "SlGATA29": {"target": "T1, SlGATA29 (Solanum lycopersicum, UniProt UPI0002BCBC7B 34-326)", "T1 sequence": "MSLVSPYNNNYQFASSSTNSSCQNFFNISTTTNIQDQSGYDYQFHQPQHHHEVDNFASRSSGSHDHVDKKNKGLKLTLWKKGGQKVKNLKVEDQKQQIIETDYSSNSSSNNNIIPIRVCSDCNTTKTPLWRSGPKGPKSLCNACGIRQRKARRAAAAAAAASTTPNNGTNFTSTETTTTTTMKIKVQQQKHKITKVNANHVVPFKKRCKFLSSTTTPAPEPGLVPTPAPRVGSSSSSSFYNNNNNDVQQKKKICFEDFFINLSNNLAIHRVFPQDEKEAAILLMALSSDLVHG", "test": "EMSA"}, "SlSWIBa-allmut": {"target": "SlSWIBa-allmut (Solanum lycopersicum, UniProt A0A3Q7HR54 1-124, R6A;L46A;K88A)", "test": "MST"}}, "data": [{"molecule": "GAATATATGAACATATTAAAAGTGACATTATAAGAAATGATAAAATTCAAAATTAAGGTG (double strand) [60bp InDel, Cy5]", "values": [{"measurement": "Kd", "setting": "[1]", "result": 40, "unit": "nM"}, {"measurement": "Kd", "setting": "[2]", "result": 42, "unit": "nM"}, {"measurement": "Kd", "setting": "[3]", "result": 47, "unit": "nM"}, {"measurement": "Kd", "setting": "[4]", "result": 35, "unit": "nM"}]}, {"molecule": "30bpSWIB-mu4 (dsDNA) DNA 1: TAAGAAATGATAAAATTCAAAATTAAGGTG DNA 2: CACCTTAATTTTGAATTTTATCATTTCTTA", "values": [{"measurement": "binding result", "setting": "SlSWIBa", "result": "no binding"}]}, {"molecule": "probe-60bp (dsDNA) DNA 1: GAATATATGAACATATTAAAAGTGACATTATAAGAAATGATAAAATTCAAAATTAAGGTG DNA 2: CACCTTAATTTTGAATTTTATCATTTCTTATAATGTCACTTTTAATATGTTCATATATTC", "values": [{"measurement": "binding result", "setting": "SlGATA29", "result": "binds"}]}, {"molecule": "60bp InDel, Cy5 (dsDNA) DNA 1: GAATATATGAACATATTAAAAGTGACATTATAAGAAATGATAAAATTCAAAATTAAGGTG DNA 2: CACCTTAATTTTGAATTTTATCATTTCTTATAATGTCACTTTTAATATGTTCATATATTC", "values": [{"measurement": "binding result", "setting": "SlSWIBa-allmut", "result": "no binding"}]}]}
